Source: US20220281990A1 (MERRIMACK PHARMACEUTICALS, published 2022)

How the values were obtained:
[1] = target: T1, Human TNFR2 expressed on cells (CHO-hTNFR2 cells) (human, UniProt P20333 23-461); assay: flow cytometry; IgG inhibiting TNF (1 nM) binding to CHO-hTNFR2 cells (FIG. 13A); FIG. 13A
T1 construct: also called CHO cells overexpressing human TNFR2; human TNFR2 reporter cells (HEK293)
T1 sequence: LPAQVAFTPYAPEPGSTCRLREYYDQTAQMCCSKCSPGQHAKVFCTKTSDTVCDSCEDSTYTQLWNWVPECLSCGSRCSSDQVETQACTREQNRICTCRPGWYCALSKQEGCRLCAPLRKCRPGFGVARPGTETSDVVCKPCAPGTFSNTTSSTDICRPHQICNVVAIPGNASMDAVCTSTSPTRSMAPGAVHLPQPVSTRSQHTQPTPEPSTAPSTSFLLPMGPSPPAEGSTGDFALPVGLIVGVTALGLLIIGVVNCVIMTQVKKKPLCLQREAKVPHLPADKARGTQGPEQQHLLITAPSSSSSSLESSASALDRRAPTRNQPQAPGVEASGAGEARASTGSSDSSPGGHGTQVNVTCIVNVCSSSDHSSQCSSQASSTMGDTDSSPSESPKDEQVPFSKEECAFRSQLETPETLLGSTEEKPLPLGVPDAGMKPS

[2] = target: T1, Human TNFR2 expressed on cells …; assay: flow cytometry; IgG inhibiting TNF (1 nM) binding to CHO-hTNFR2 cells (FIG. 12)
[3] = target: T1, Human TNFR2 expressed on cells …; assay: flow cytometry; IgG binding to CHO-hTNFR2 cells; four parameter fit (FIG. 10)
[4] = target: T2, recombinant human TNFR2-His (human, UniProt P20333 23-257); assay: flow cytometry; hTNFR2-His binding to scFv displayed on yeast (FIG. 8)
T2 construct: also called hTNFR2-His; TNFR2-His protein; not shown: His tag
T2 sequence: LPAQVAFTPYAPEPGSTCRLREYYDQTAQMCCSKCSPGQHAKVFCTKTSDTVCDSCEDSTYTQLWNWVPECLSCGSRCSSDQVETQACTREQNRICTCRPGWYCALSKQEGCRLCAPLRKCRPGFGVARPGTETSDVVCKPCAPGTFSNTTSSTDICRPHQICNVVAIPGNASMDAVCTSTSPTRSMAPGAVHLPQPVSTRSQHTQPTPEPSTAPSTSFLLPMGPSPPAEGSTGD

[5] = target: T3, recombinant human TNFR2-hFc protein (human, UniProt P20333 23-257); assay: flow cytometry; hTNFR2-Fc binding to scFv displayed on yeast; one site binding fit (FIG. 4)
T3 construct: also called hTNFR2-Fc; human TNFR2-Fc; not shown: human Fc
T3 sequence: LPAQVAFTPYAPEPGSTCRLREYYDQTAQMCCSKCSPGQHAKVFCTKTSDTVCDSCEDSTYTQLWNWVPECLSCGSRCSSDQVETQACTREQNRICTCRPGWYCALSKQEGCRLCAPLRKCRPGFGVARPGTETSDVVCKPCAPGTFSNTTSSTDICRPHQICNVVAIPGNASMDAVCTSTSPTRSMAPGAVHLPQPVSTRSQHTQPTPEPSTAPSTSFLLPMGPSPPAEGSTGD

[6] = target: T1, Human TNFR2 expressed on cells …; assay: flow cytometry; soluble scFv inhibiting TNF (1 nM) binding to CHO-hTNFR2 cells (FIG. 7)
[7] = target: T1, Human TNFR2 expressed on cells …; assay: flow cytometry; soluble scFv inhibiting TNF (1 nM) binding to CHO-hTNFR2 cells (FIGS. 5A-5B)
[8] = target: T3, recombinant human TNFR2-hFc protein; assay: flow cytometry; hTNFR2-Fc binding to scFv displayed on yeast (FIG. 4)
[9] = target: T3, recombinant human TNFR2-hFc protein; assay: flow cytometry; hTNFR2-Fc binding to scFv displayed on yeast; one site binding fit (FIG. 6B); FIG. 6B
[10] = target: T3, recombinant human TNFR2-hFc protein; assay: flow cytometry; hTNFR2-Fc binding to scFv displayed on yeast; one site binding fit (FIG. 6A)

| Binder | IC50 [1] | IC50 [2] | EC50 [3] | EC50 [4] | Kd [5] | IC50 [6] | IC50 [7] | fold higher affinity (vs parental scFv) [8] | Kd [9] | Kd [10] |
| --- | --- | --- | --- | --- | --- | --- | --- | --- | --- | --- |
| UC2.3-IgG1 (antibody, V domains shown, Full-length human IgG1; also called anti-human TNFR2 IgG UC2.3) VH: QVQLLESGGGLVQPGGSLRLSCAASGFTFSTYAMSWIRQAPGKGLEWVSIISDGGDATVYADSVKGRFTISRDNSKNTLYLQMNSLRAEDTAVYYCARDGTSAAAFDSWGQGTLVTVSS VL: DIQMTQSPSSLSASVGDRVTITCQASQDITNFLNWYQQKPGKAPKLLIYDASTLQTGVPSRFSGSGSGTDFTFTISSLQPEDIATYYCQQSDSYPITFGQGTKVEIKR | 48 nM | 12.4 nM | 3.4 nM |  |  |  |  |  |  |  |
| UC2.3 (S4-2 1D10-1G9) scFv (scFv) scFv: QVQLLESGGGLVQPGGSLRLSCAASGFTFSTYAMSWIRQAPGKGLEWVSIISDGGDATVYADSVKGRFTISRDNSKNTLYLQMNSLRAEDTAVYYCARDGTSAAAFDSWGQGTLVTVSSASSGGSTSGSGKPGSGEGSSGSARDIQMTQSPSSLSASVGDRVTITCQASQDITNFLNWYQQKPGKAPKLLIYDASTLQTGVPSRFSGSGSGTDFTFTISSLQPEDIATYYCQQSDSYPITFGQGTKVEIKR |  |  |  | 33.9 nM | 8.88 nM | 4.85 nM | 6.59 nM | ~5 fold | 8.16 nM |  |
| UC1.1 (S4-2 1B5-1D9) scFv (scFv) scFv: QVQLLESGGGLVQPGGSLRLSCAASGFSFTSYAMTWVRQAPGKGLEWVSGISGGGAATFYADSVKGRFTISRDNSKNTLYLQMNSLRAEDTAVYYCARQSQYVGGFDYWGQGTLVTVSSASSGGSTSGSGKPGSGEGSSGSARQSVLTQPPSVSGAPGQRVTISCTGSSSNIGAGYGVHWYQQLPGTAPKLLIHGNTNRPSGVPDRFSGFKSGTSASLAITGLQAEDEADYYCQSYDSSLSGWVFGGGTKLTVLG |  |  |  |  | 2.59 nM |  | 10.7 nM | ~5 fold |  | 2.87 nM |
